From paper PMC3832608 come the findings set out here.

The test deals with T1, Corticotropin Releasing Factor receptor 2 (CRF2) (human (endogenous in HT-29)) (UniProt Q13324).
T1 sequence: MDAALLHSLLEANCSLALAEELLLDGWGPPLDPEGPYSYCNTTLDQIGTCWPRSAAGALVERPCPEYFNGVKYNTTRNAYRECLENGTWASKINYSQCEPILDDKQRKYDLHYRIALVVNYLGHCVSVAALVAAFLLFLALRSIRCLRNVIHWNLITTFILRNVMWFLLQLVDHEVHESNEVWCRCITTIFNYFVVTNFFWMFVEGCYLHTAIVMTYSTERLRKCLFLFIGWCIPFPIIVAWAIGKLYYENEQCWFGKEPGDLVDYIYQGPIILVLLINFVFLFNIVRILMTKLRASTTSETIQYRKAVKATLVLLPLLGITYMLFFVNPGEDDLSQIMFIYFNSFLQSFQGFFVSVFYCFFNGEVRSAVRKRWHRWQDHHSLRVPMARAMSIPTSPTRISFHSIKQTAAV

B1: Corticotropin releasing factor (CRF) (peptide)
peptide: SEEPPISLDLTFHLLREVLEMARAEQLAQQAHSNRKLMEIIGK
On to B1, for which the cAMP production by HT-29 cells treated with 1 µM CRF (ELISA kit); completely reversed by 1 µM astressin2b (A2b) (pM of cAMP/10^5 cells) came out at 0.5.

B2: Urocortin 2 (Ucn2) (peptide)
peptide: IVLSLDVPIGLLQILLEQARARAAREQATTNARILARVGHC
The molecule B2 displayed a cAMP production by HT-29 cells treated with 1 µM Ucn2 (ELISA kit); completely reversed by 1 µM astressin2b (A2b) (pM of cAMP/10^5 cells) of 1.

B3: Urocortin 3 (Ucn3) (peptide)
peptide: FTLSLDVPTNIMNLLFNIAKAKNLRAQAAANAHLMAQI
As for B3, the cAMP production by HT-29 cells treated with 1 µM Ucn3 (ELISA kit); completely reversed by 1 µM astressin2b (A2b) (pM of cAMP/10^5 cells) amounted to 2.4.
